Kd, koff and kon data for two molecules are collected here from patent publication EP2975059A1 (Kymab Limited, dated 2016).

Holding throughout (test): SPR ProteOn XPR36, antibody captured on anti-human IgG, PCSK9 variant as analyte, 25 C, 1:1 model
The target of assay [1] is T1, Human PCSK9 form c (human, UniProt Q8NBP7 31-692).
T1 construct: also called PCSK9 c

Assay [2] has as its target T2, Human PCSK9 form r (human, UniProt Q8NBP7 31-692).
T2 construct: also called PCSK9 r

Assay [3] has as its target T3, Human PCSK9 form a (human, UniProt Q8NBP7 31-692).
T3 construct: also called PCSK9 a

The target of assay [4] is Human PCSK9 form f (human, UniProt Q8NBP7 31-692).
For assay [5], the target named is T4, Human PCSK9 form p (human, UniProt Q8NBP7 31-692).
T4 construct: also called PCSK9 p

B1: Antibody 316P (antibody, V domains shown)
VH: EVQLVESGGGLVQPGGSLRLSCAASGFTFNNYAMNWVRQAPGKGLDWVSTISGSGGTTNYADSVKGRFIISRDSSKHTLYLQMNSLRAEDTAVYYCAKDSNWGNFDLWGRGTLVTVSS
VL: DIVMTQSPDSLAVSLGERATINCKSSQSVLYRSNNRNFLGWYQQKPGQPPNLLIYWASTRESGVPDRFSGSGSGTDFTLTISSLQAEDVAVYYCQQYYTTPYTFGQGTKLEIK
As usually defined, the Kd is the equilibrium constant for the complex coming apart. High values mean lower affinity, low ones higher affinity. What is called koff is a measure of how fast the partners let go of each other. For orientation: kon means a measure of how fast the partners come together. Turning to B1, the Kd in assay [1] is 0.184 nM; in assay [2], 0.197 nM; in assay [3], 0.201 nM; in assay [4] it was 0.203 nM; in assay [5] it was 0.196 nM. Also, the dissociation rate constant (koff) in assay [1] was found to be 0.000275 s⁻¹; in assay [2], 0.000276 s⁻¹; in assay [3], 0.000275 s⁻¹; in assay [4], 0.000282 s⁻¹; in assay [5], 0.000273 s⁻¹. Further, the kon was determined as 1.49e+06 M⁻¹ s⁻¹ in assay [1]; 1.4e+06 M⁻¹ s⁻¹ in assay [2]; 1.37e+06 M⁻¹ s⁻¹ in assay [3]; 1.39e+06 M⁻¹ s⁻¹ in assay [4]; 1.39e+06 M⁻¹ s⁻¹ in assay [5].

B2: Evolocumab (antibody, V domains shown)
VH: QVQLVQSGAEVKKPGASVKVSCKASGYTLTSYGISWVRQAPGQGLEWMGWVSFYNGNTNYAQKLQGRGTMTTDPSTSTAYMELRSLRSDDTAVYYCARGYGMDVWGQGTTVTVSS
VL: QSALTQPASVSGSPGQSITISCTGTSSDVGGYNSVSWYQQHPGKAPKLMIYEVSNRPSGVSNRFSGSKSGNTASLTISGLQAEDEADYYCNSYTSTSMVFGGGTKLTVL
With B2, the Kd in assay [1] is 0.183 nM; in assay [2] it was 0.23 nM; in assay [3], 0.229 nM; in assay [4], 0.229 nM; in assay [5], 0.219 nM. For the same molecule, the koff turned out to be 2.2e-05 s⁻¹ in assay [1]; 2.67e-05 s⁻¹ in assay [2]; 2.62e-05 s⁻¹ in assay [3]; 2.66e-05 s⁻¹ in assay [4]; 2.5e-05 s⁻¹ in assay [5]. Moreover, the kon in assay [1] was 120000 M⁻¹ s⁻¹; in assay [2], 116000 M⁻¹ s⁻¹; in assay [3], 114000 M⁻¹ s⁻¹; in assay [4], 116000 M⁻¹ s⁻¹; in assay [5], 114000 M⁻¹ s⁻¹.
